Measured values taken from patent US8513197B2, “Ganglioside epitopes for treating Guillain-Barre syndrome” (Georgia Regents University, priority 2009, dated 2013).
Where two headings read alike, the source gives them in different places. No end group written: not given here.

Assays:
mAb R24 = test: Competitive inhibition ELISA: binding of mAb R24 to GD3-coated plate
Method: Subsequently, an aliquot (100 μl) was added to each well, and each well of the ELISA plate was coated with 0.1 μg GD3. The remaining binding activity of mAb R24 was determined by ELISA. Values are means±SD, n=6 individual experiments. […] The experiment at each dose was performed on three rats, and values are means±SD.
(§1) Antiganglioside antibody activity was evaluated for GM1, GM2, GD1a, GD1b, GT1b, GQ1b, GD3, and LOSGD3 by conventional ELISA method (Usuki et al., 2005. J Neurol Sci 232: 37-44). […] Before the ELISA plate assay, each well was treated with 1% BSA/PBS solution. […] After incubation, the reaction mixture was passed through a 0.22-μm syringe filter (Millipore Corp., Bedford, Mass.). Subsequently, 100 μl of the mixture was added to each well and incubated for 1 hr at room temperature. To each of the wells, a secondary antibody (horseradish peroxidase-conjugated anti-mouse IgG, 1:5,000 dilution in 1% BSA/PBS solution) was added and incubated for 1 hr at room temperature. Finally, the bound secondary antibody was visualized by addition of a color-generating reagent (OPD Peroxidase Substrate). The absorbance was measured at 492 nm with a microplate spectrophotometer (Bio-Rad, Hemel Hempstead, United Kingdom). The nomenclature of gangliosides is based on that of Svennerholm (Svennerholm, 1964. J Lipid Res 5: 145-155).
FIG. 8 illustrates the effect of GD3-like peptides on binding of R24 mAb to GD3 by ELISA. Each of the GD3-peptide mimics in solution (PGD3-1, PGD3-2, PGD3-3, PGD3-4, PGD3-5, or PGD3-6) was incubated with R24 mAb for 30 min at room temperature at various concentrations as indicated in the horizontal axis. An aliquot of the mixtures (100 μL), was added to each well of an ELISA plate coated with 0.1 μg of GD3. The remaining binding activity of R24 mAb was measured by ELISA. Values are mean±SEM, n=6 individual experiments.
(§2) Anti-ganglioside antibody activity was evaluated for GM1, GM2, GD1a, GD1b, GT1b, GQ1b, GD3, and LOSGD3 by conventional ELISA as previously described (Usuki et al., 2005. J. Neurol. Sci. 232:37-44). To measure half-maximal inhibitory concentrations (IC50s) of GD3-like peptides for binding of GD3 to mAb R24, each well of the ELISA plate (Immunlon 1B, Lab System, Franklin, Mass., USA) was coated with 0.1 μg of GD3, and prior to ELISA assay was treated by 1% BSA/PBS solution. The purified mAb R24 IgG (10 μg/mL by 1% BSA/PBS solution) was incubated with various concentrations of GD3-like peptides (PGD3-1, PGD3-2, PGD3-3, PGD3-4, PGD3-5, and PGD3-6) for 30 min. After incubation, the reaction mixture was passed through a 0.22-μm syringe filter (Millipore Corp., Bedford, Mass., USA), and 100 μL of the mixture was added to each well and incubated for 1 h at room temperature. A secondary antibody (horseradish peroxidase-conjugated anti-mouse IgG, 1:5000 dilution in 1% BSA/PBS solution) was applied, incubated for 1 h at room temperature, and visualized by addition of a color-generating reagent (OPD Peroxidase Substrate). The absorbance was measured at 492 nm with a microplate spectrophotometer (BioRad, Hemel Hempstead, UK).

[1] = Pharmacokinetic study of bPGD3-4 after i.p. single dose (streptavidin-coated ELISA of plasma); details: for tmax: normal Lewis rats
Method: Briefly, the plasma samples from the single-dose administration of bPGD3-4 were applied to the streptavidin-coated ELISA plates at serial double dilutions in 1% bovine serum albumin/phosphate buffered-saline (BSA/PBS) solution. […] After washing with 1% BSA/PBS buffer, each well was treated with an anti-mouse IgG horseradish peroxidase-conjugated antibody (Jackson ImmunoResearch Lab, West Grove, Pa., USA). This secondary antibody was pre-treated with rat IgG to eliminate contamination from any anti-rat IgG binding activity. Finally, the bound secondary antibody was visualized by a color-generating reagent (OPD Peroxidase Substrate in PBS; Sigma, St Louis, Mo., USA). Half-saturation absorbance values for plasma samples were estimated by serial plasma dilution curves of ELISA. The absorbances were then converted into values of plasma concentration using a standard serial dilution curve of rat serum containing authentic bPGD3-4.
A Micro-Renathane polyurethane cannula, 0.84 mm o.d.×0.36 mm i.d., (Braintree Scientific Inc., Braintree, Mass.) was inserted before dosing into the femoral vein of a female Lewis rat (n=9; body weight=200±20 g). […] Blood samples were centrifuged at room temperature and the plasma harvested. The plasma samples were stored at −60° C. to −80° C. until analyzed by a streptavidin-coated ELISA plate for determining the total concentration of bPGD3-4.
The following parameters were calculated: maximum-, minimum-, and average-observed plasma concentration (Cmax, Cmin, and Cav), areas under the plasma concentration-time curve from zero to infinite time (AUC) plasma clearance (CL), distribution half-life (t1/2α), and elimination half-life (t1/2β).

[2] = system: anti-GD3 antibody and anti-LOSGD3 antibody; test: Time course of serum anti-GD3 and anti-LOSGD3 antibody (ELISA) in immunized rats; assay type: in vivo, Lewis rats; details: peptide 1000 nmol/kg i.p. daily, from weeks 8, 11 and 14
Method: as §1
as §2, with “A secondary antibody (horseradish peroxidase-conjugated anti-mouse IgG, 1:5000 dilution in 1% BSA/PBS solution) was applied, incubated for 1 h at room temperature, and visualized by addition of a color-generating reagent (OPD Peroxidase Substrate).” left out

LOSGD3-sensitized rats [3] = test: Rotarod motor test; details: LOSGD3/peptide group vs LOSGD3 treatment group, week 17
Method: Twelve-week-old female Lewis rats weighing 200-250 g were used. One hundred micrograms LOSGD3 was dissolved in 50 mM PBS buffer with a vehicle of 0.05 ml keyhole limpet hemocyanin (KLH; 2 mg/ml) and emulsified with an equal volume of complete Freund's adjuvant (CFA). Rats were given a single subcutaneous injection of 0.1 ml inoculum (or vehicle) into the shoulders and the footpads of the hind limbs. In addition, booster injections were administered similarly to injections in LOSGD3 (or vehicle)-treated animals at 2-week intervals with 100 μg LOSGD3 (or no additive) and 2 mg/ml KLH in PBS emulsified with an equal volume of incomplete Freund's adjuvant (ICFA) 6 weeks thereafter. Sixteen experimental animals were divided into four groups (n=4 each): 1) LOSGD3, 2) LOSGD3/BEC2, 3) vehicle, and 4) vehicle/BEC2. The remaining animals were included as the untreated control group (n=4). As shown in the third and fourth stepladders of FIG. 2, BEC2 (5 mg kg^−1) was administered to rats once per week from 8 to 15 weeks.
A rat was placed on a rotating roller (4 cm in diameter), and the time for which the rat remained on the roller was measured. The test included eight trials; each trial was performed at an interval of 10 min; four trials were performed. An additional four trials were conducted after 24 hr. When the rat could stay on the rotating rod at a constant speed of 5 rpm for a cumulative duration of at least 2 sec, the rotation speed was increased by 0.2 rpm/sec.
Twelve-week-old female Lewis rats, weighing 200-220 g each, were used. One hundred micrograms of LOSGD3 was dissolved in 50 mM PBS buffer as vehicle, and with 0.05 mL of keyhole limpet hemocyanin (2 mg/mL) emulsified with an equal volume of complete Freund's adjuvant. A single subcutaneous injection of 0.1 mL of inoculum (or vehicle) was made into the rats' shoulders and hind limb footpads. […]

LOSGD3-sensitized rats [4] = test: Nerve conduction velocity (NCV) in rat tail nerve; details: LOSGD3/peptide-treated groups, week 16
Method: Twelve-week-old female Lewis rats, weighing 200-220 g each, were used. One hundred micrograms of LOSGD3 was dissolved in 50 mM PBS buffer as vehicle, and with 0.05 mL of keyhole limpet hemocyanin (2 mg/mL) emulsified with an equal volume of complete Freund's adjuvant. A single subcutaneous injection of 0.1 mL of inoculum (or vehicle) was made into the rats' shoulders and hind limb footpads. Additional booster injections were administered similarly to LOSGD3- (or vehicle-) treated animals at 2-week intervals with 100 μg of LOSGD3 (or no additive) and 2 mg/mL of keyhole limpet hemocyanin in PBS emulsified with an equal volume of incomplete Freund's adjuvant after 6 weeks. Forty-four experimental animals were grouped into 10 treatment paradigms (n=4 each): (i) LOSGD3, (ii) LOSGD3/PGD3-3, (iii) LOSGD3/PGD3-4, (iv) LOSGD3/PGD3-5, (v) LOSGD3/PGD3-6, (vi) vehicle, (vii) vehicle/PGD3-3, (viii) vehicle/PGD3-4, (ix) vehicle/PGD3-5, and (x) LOSGD3/PGD3-6. The remaining four animals were the untreated control group (n=4). […]
NCVs (m/s) were measured in the rat tail nerve using a Nicolet VikingQuest EMG machine (NeuroCare Group, Madison, Wis., USA) according to the method described previously (Usuki et al., 2006. J. Neurosci. Res. 83:274-284).

[5] = simulated, 1,000 nmol kg^−1 i.p. at 24-hourly intervals for 7 days
[6] = as restated in Example 12, read-out: IC50 values for the active peptides
[7] = i.p. single dose 100.0 nmol kg^−1, mean (SD)
[8] = i.p. single dose 500.0 nmol kg^−1, mean (SD)
[9] = i.p. single dose 1000.0 nmol kg^−1, mean (SD)

## PHFDSLLYPCELLGC [PGD3-2, GD3-like peptide]
mAb R24; ELISA
  inhibitory activity on GD3 reactivity to mAb R24: little or no inhibitory activity

## RHAYRSMAEWGFLYS [PGD3-4]
[1]; read-out: Cmax, chronic simulation, simulated, 1,000 nmol kg^−1 i.p. at 24-hourly intervals for 7 days
  Cmax: 670 µM
[1]; [5]
  Cav, chronic simulation: 340 µM
  Cmin, chronic simulation: 0.33 µM

## SVAVPPPADDPSWRY [PGD3-6]
[2]
  effect on serum anti-GD3 / anti-LOSGD3 antibody level: no suppression of either anti-LOSGD3 or anti-GD3 antibodies
mAb R24; ELISA
  inhibitory activity on GD3 reactivity to mAb R24: remarkable inhibitory activities
mAb R24; [6]
  IC50: 250 nM
LOSGD3-sensitized rats [3]
  rotarod retention time / motor performance: did not show any statistically significant differences

## bPGD3-4: biotinylated product of GD3-like peptide PGD3-4 (RHAYRSMAEWGFLYS; also: biotinylated, site not given here)
[1]; [7]
  AUC (zero to infinite time): 130.0 (43.6) nmol mL^−1 hr
  CL (plasma clearance): 0.82 (0.24) mL hr^−1
  Cmax: 70.8 µM
  t1/2α (distribution half-life): 0.48 (0.03) hr
  t1/2β (elimination half-life): 2.45 (0.27) hr
[1]; [8]
  AUC (zero to infinite time): 589.2 (72.9) nmol mL^−1 hr
  CL (plasma clearance): 0.86 (0.11) mL hr^−1
  Cmax: 267 µM
  t1/2α (distribution half-life): 0.42 (0.03) hr
  t1/2β (elimination half-life): 2.45 (0.33) hr
[1]; [9]
  AUC (zero to infinite time): 1425.7 (78.8) nmol mL^−1 hr
  CL (plasma clearance): 0.71 (0.04) mL hr^−1
  Cmax: 667 µM
  t1/2α (distribution half-life): 0.46 (0.03) hr
  t1/2β (elimination half-life): 2.76 (0.42) hr
[1]; i.p. single dose 100.0 nmol kg^−1, n = 3
  tmax: 30 min
[1]; i.p. single dose 500.0 nmol kg^−1, n = 3
  tmax: 30 min
[1]; i.p. single dose 1000.0 nmol kg^−1, n = 3
  tmax: 30 min
[1]; rats, i.p. single dose of 100, 500 and 1,000 nmol kg^−1
  death or toxicity after peptide administration: None of the experimental rats died or exhibited toxicity
[1]; single-dose range 100-1000 nmol kg^−1
  linearity of pharmacokinetics: linear pharmacokinetics

## ACTPYAMLPGCK [PGD3-5]
[2]
  effect on serum anti-GD3 / anti-LOSGD3 antibody level: effective in suppressing serum anti-GD3 antibody activity
mAb R24; ELISA
  inhibitory activity on GD3 reactivity to mAb R24: remarkable inhibitory activities
mAb R24; [6]
  IC50: 100 nM
mAb R24; read-out: IC50, competitive inhibition of GD3 reactivity to mAb R24, ELISA, 0.1 μg GD3 per well, as printed in Example 11
  IC50: 100 nM
LOSGD3-sensitized rats [3]
  rotarod retention time / motor performance: did not show any statistically significant differences
LOSGD3-sensitized rats [4]
  effect on NCV: less attenuation of NCV

## GLAPPDYAERFFLIS [PGD3-3]
[2]
  effect on serum anti-GD3 / anti-LOSGD3 antibody level: no suppression of either anti-LOSGD3 or anti-GD3 antibodies
mAb R24; ELISA
  inhibitory activity on GD3 reactivity to mAb R24: remarkable inhibitory activities
mAb R24; [6]
  IC50: 300 nM
LOSGD3-sensitized rats [3]
  rotarod retention time / motor performance: did not show any statistically significant differences

## LAPPRPRSELVFLSV [PGD3-1, GD3-like peptide]
mAb R24; ELISA
  inhibitory activity on GD3 reactivity to mAb R24: little or no inhibitory activity
